For this data set the following is noted: Rhodobacter capsulatus (strain ATCC BAA-309 / NBRC 16581 / SB1003); pH 7.5; 20 °C; GdnHCl; CD; Tris-HCl 20 mM; NaCl 40 mM; whole UniProt chain shown.

The text below walks through data of FireProtDB (doi:10.1021/bi00231a002).

B1: Cytochrome c2 wild type, P00094 (protein)
chain: MKISLTAATVAALVLAAPAFAGDAAKGEKEFNKCKTCHSIIAPDGTEIVKGAKTGPNLYGVVGRTAGTYPEFKYKDSIVALGASGFAWTEEDIATYVKDPGAFLKEKLDDKKAKTGMAFKLAKGGEDVAAYLASVVK
B1: the denaturant m value turned out to be 1.65 kcal/mol/M, the “denaturant midpoint (higher = more stable)” value came to 4.51 M and the unfolding free energy is 31.2 kJ/mol.
